Test results: publication PMC8248744, “High-resolution genetic mapping reveals cis-regulatory and copy number variation in loci associated with cytochrome P450-mediated detoxification in a generalist arthropod pest” (PLoS Genetics, 2021)

Substrate: COC(c1ccc(NC(=O)c2c(C)nn(C)c2C)cc1CC(C)C)(C(F)(F)F)C(F)(F)F
Assay: HPLC-UV substrate depletion, recombinant membranes
Assay type: biochemical, Tetranychus urticae
Settings: NADPH-regenerating system, 0.2 M Tris-HCl pH 7.4, 0.25 mM MgCl2, 2.5% acetonitrile, 30°C, N-demethylation at pyrazole, co-expressed with TuCPR

B1: CYP392A16 (Tetranychus urticae) (protein)
chain: MIEVIHSGSIPDGHFTVSTIMFLISNLLSSQPLVNSLIGLALFWLVKYLFNTIQRIRSLPAGPWGLPIVGYLPFIKDDIYLVFDQLSKKYGPVYSLKLGSFDVVLVCDWPHMKDAVANDALLARQHEVFFPGVVEGRSFAEMSGDPWREHRRLSLHILRDVGLGKSTIETLVKEEVDQFLSALENNGKPADFEKCISRSVTNNVSILLFGHKYERDDPTAIAISSANTEVGRSFSFAGVVAFLPWLAELVFKFELFNVTRLKKCFQIVDTHIQDEIVKHQEKNSQEVVDYIDGYLVEKKNREKQNKVDDNFTIEILRRNAGAFYGAGTETVSSTMEWIMVYLVKYPEYQDKIRSEIADVIGFERKPDYVDRNRMPFTMAFIHEIHRIGSVVANNLLRRAASDTKIGNYNIPKDTLVILNFWSVNRDPKLWPNPDEFDPTRFLTEDGSKVVKPPHLIPFSAGKRNCPGESLANVELFLYLVCMLQKYHVKVKPGTKISTEAIFGLSRRPSQLPTFIFEKISNSN
notes: E. coli BL21STAR membrane fraction; with NADPH--cytochrome P450 reductase
With B1 the Km was 17.79 (± 3.29 SE) μM.
